In patent publication US20040077017A1:

Target: Fc3(1) (human) (UniProt P01860)
Assay: Biacore 2000 SPR, Fc3(1) immobilized on CM5 chip, 25 C, HBS

Kd: 90 nM
Substance: unlabeled, wild-type Z-ABD (from UniProt P19909 254-299) (designed binder)
